Results taken from patent publication US20260158070A1, “COMPOSITIONS AND METHODS FOR THE TREATMENT AND DIAGNOSIS OF CANCERS ASSOCIATED WITH SURFACE K-RAS” (UNIVERSITY OF MARYLAND, BALTIMORE, priority 2023, published 2026).

B1: mutated form of R11.1.6: R11.1.6 with codons in the regions that contact the K-RAS mutant scrambled to prevent binding (SEQ ID NO: 6) (protein)
chain: ATVKFTHQGEEKQVDISKIKFVWRKGYVRIWGYDEDGGWGAGKYVSEKDAPKELLQMLKKR
B2: E11.4.1: scaffold protein which binds human EGFR (SEQ ID NO: 8) (protein)
chain: ATVKFTYQGEEKQVDISKIMYVIRGGQRIAFGYDEGDGAWGDGIVSEKDAPKELLQMLEKQ
B3: M11.1.2: a scaffolding protein that binds mouse serum albumin (SEQ ID NO: 7) (protein)
chain: ATVKYTYRGEEKRVDISKIKWVNRWGQHLAFKYDKGGGAAGYGWVSEKDAPKELLQMLEKR

Experiments:
[1] = tested on: Panc-1 (K-Ras G12D mutant); test: Growth and viability of pancreatic cancer cells cultured with R11.1.6 constructs (cell count, Trypan blue); type: cell-based, human; details: Panc-1, 20,000 cells/well, counted after 5 days of culture
Description: We next evaluated growth as well as viability of two pancreatic cancer cell lines driven by either G12D (Panc-1) or G12C (MiaPaca-2) mutant K-Ras in vitro. We plated 20,000 cells/well in Dulbecco's modified Eagles media (DMEM) with 10% fetal bovine serum (FBS) in a flat bottom 96 well plate and counted cells after 5 days of culture. Viability of cells were calculated based on Trypan blue dye exclusion method, where dead cells were blue due to uptake of the viability dye and live cells were not stained. Viability was measured by using Countess II FL cell viability and cell counter instrument by Invitrogen (ThermoFisher USA).
Further evaluation of growth inhibition was performed with control Sulfolobus solfataricus-derived proteins of similar molecular weight. […] We started with 200,000 cells in a 96 well V-bottom plate and used BD phosflow buffer set III (BD biosciences, catalog number 558050) to stabilize and optimize the phosphor moiety. Next, we stained the cells with anti-phospho-Akt (ser473, Clone D9E) PE conjugated (Cell Signaling Technologies, Catalog number 5315S) at a concentration of 0.125 ug/100 ul or anti-phosho-ERK1/2, PE conjugated (ThermoFisher USA catalog number 12-9109-42) at a concentration of 0.125 ug/100 ul. Cells were washed in FACS staining buffer and run in a LSR Fortessa II flow cytometer (BD Biosciences, USA). Acquisition was done was using FACS DIVA software (BD Biosciences) and analysis was performed in FlowJo software (Tree Star, OR, USA). This was a significant finding as both Akt and ERK1/2 are important downstream molecules of K-Ras signaling, like that described for small molecule inhibitors of K-Ras (PMID: 12509763) (FIG. 1g).

[2] = tested on: Panc-1 (G12D mutant K-Ras); test: Localization / surface binding of His-tagged constructs by anti-His flow cytometry and confocal microscopy; type: cell-based, human
Description: However, we considered that the small 7 kDa size of this scaffolding protein and disorganized cell membrane of malignantly transformed cells may allow for cytoplasmic penetration even in the absence of a cell penetrating peptide. To evaluate this possibility, we explored the cellular location of the R11.1.6 constructs by flow cytometry and confocal microscopy. For flow cytometry experiments, cells were stained first with Live/Dead far red fixable staining kit (ThermoFisher USA, catalog number L10120). Specifically, 0.2-0.4×10^6 cells were plated in a V bottom plate and 100 ul of the dye (1:1000 dilution of stock concentration following manufacturer's protocol) was added to each well and cells incubated in room temperature for 15 mins. Next cells were washed with PBS containing 2.5% FBS and 0.1% sodium azide (FACS buffer). Cells were then surface stained by adding 100 ul/well of anti-His PE labelled antibody (mouse anti-human antibody, BioLegend, CA, USA Catalog #362603) at a concentration of 10 μg/ml. Cells were washed twice with FACS buffer and fixed by cytofix buffer (BD biosciences catalog number 554655). […] Cells were acquired using LSR Fortessa II flow cytometer using FACS DIVA software (BD Biosciences USA) and analyzed using FlowJo (Tree Star USA). […]

| Molecule | growth and viability [1] | binding to the tumor cell surface (anti-His staining) [2] |
| --- | --- | --- |
| B1 | none of these control constructs could inhibit tumor growth |  |
| B2 | none of these control constructs could inhibit tumor growth | bind to the surface of tumor cells |
| B3 | none of these control constructs could inhibit tumor growth |  |
